From the RNAGym collection of RNA variant scans (doi:10.1073/pnas.2313332121)

B1: TPR t1 (parent)
chain: GACCAAUCUGCCCUCAGAGCUCGAGAACAUCUUCGGAUGCAGAGGAGGCAGGCUUCGGUGGCGCGAUAGCGCCAACGUCCUCAACCUCCAAUGCAUCCCACCACAUGAUGAUGCCUGAAGAGCCUUGGUUUUUUG

Variants of: B1
Experiment: polymerase ribozyme fitness, log enrichment relative to wild type (log ratio); higher = more active; in vitro selection for triplet polymerase activity
Outline: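 Each subunit of a heterodimeric triplet polymerase ribozyme was represented by a PCR-built, transcribed mutant library that underwent triplicate single-round in vitro selection with frozen incubation at −7 °C. Extended constructs were recovered by gel excision, streptavidin-bead capture and RT-PCR, and Illumina sequencing of input and output libraries kept genotypes with ≥10 input reads and ≥1 read per output. Fitness is the logarithm of genotype enrichment relative to wild-type enrichment, from inverse-variance-weighted replicate averages, with a logarithm base of 2.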

Q: For GACCAAUCGGCCCUCAGAGCUCGAGAACAUCUUCGGAUGCAGAGGAGGCAGGCUUCGGUGGCGCGAUAGCGCCAACGUCCUCAACCUCCAAUGCGUCCCACCACAUGAUGAUGCCUGAAGAGCCUUGGUUUUUUG, which “polymerase ribozyme fitness (log ratio)” value is on record?
A: 0.394

Q: For GACCAAUCGGCACUCAGAGCUCGAGAACAUCUUCGGAUGCACAGGAGGCAGGCUUCGGUGCCGCGAUAGCGCCAACGUCCUCAACCUCCAAUGCAUCCCACCACAUGAUGAUGCUUGAAGAGCCUUGGUUUUUUG, which “polymerase ribozyme fitness (log ratio)” value is on record?
A: -3.63

Q: Which “polymerase ribozyme fitness (log ratio)” value does the source give for GACCAAUCGGCCCUCAGAGCUCGAGAACAUCUUCGGAUGCAGAGGGGGCAGGCUUCGGUGGCGCGAUAGCGCUAGCGUCCUCAACCUCCAAUGCAACCCACCACAGGAUGAUGCCUGAAGAGCCUUGGUUUUUUG here?
A: -3.78

Q: With GACCAAUCGGGCCUCAGAGCUCGAGAACAUCUUCGGAUGUAGAGGAGGCAGGCUUCGGUGGCGCGAUAGCGCCAACGUCCUCAACCUCCAAUGCAUCCCACCACAUGAUGAUGCCUGAAGAGCCUUGGUUUUUUG as the variant, how does the “polymerase ribozyme fitness (log ratio)” value read?
A: -4.28

Q: Which “polymerase ribozyme fitness (log ratio)” value does the source give for GACCAAUCGGACCUCAGAGCUCGAGAACAUCUUCGGAUGCAGAGGAGGCAGGCUUCGGUGGCGCGAUAGCGCCAACGCCCUCAACCUCCAAUGCAUCCCACCACAUGAUGAUGCCUGAAGAGCCUUGGUUUUUUG here?
A: -0.41

Q: Which “polymerase ribozyme fitness (log ratio)” value does the source give for GACCAAUCGGCCCUCAGAGCUCGAGAACAUCUUCGGAUGCUGAGGAGGCAGGCUUCGGUGUCGCGAUAGCGCCAACGUCCUCAACCACCAAUGCAUCCCACCACAUGAUAAUGCCUGAAGAGCCUUGGUUUUUUG here?
A: -3.56

Q: Which “polymerase ribozyme fitness (log ratio)” value does the source give for GACCAAUCGGCCCUCAGAGCUCGAGAACAUCUUCGGAUGCUGAGGAGGCAGGCUUCGGUGGCGCGAUAGCACCAACGUCCCCAACCUCCAAUGCAACCCACCACAUGAUGAUGCCUGAAGAGCCUUGGUUUUUUG here?
A: -5.71

Q: For GACCAAUCGGACCUCAGGGCUCGAGAACAUCUUCGGAUGCUGAGGAGGCAGGCUUCGGUGGCGCGAUAGCGCCAACGGCCUCAACCUCCAAUGCAUCCCACCACAUGAUGAUGCCUGAAGAGCCUUGGUUUUUUG, which “polymerase ribozyme fitness (log ratio)” value is on record?
A: -4.42

Q: For GACCAAUCGGACCUCAGAGCUCGAGAACAUCUUCGGAUGCAGAGGAGGCAGGCUUCGGUGGCGCGAUAGCGCCAACGUCCUCAACCACCAAUGCAUCCCACCACAUGAUGAUGCCUGAAGAGCCUUGGUUUUUUG, which “polymerase ribozyme fitness (log ratio)” value is on record?
A: -0.55

Q: For GACCAAUCGGCCCUCAGAGCUCGAGAACAUCUUCGGAUGCAGAGGCGGCAGGCUUCGGUGGCGCGAUAGCGCCAACGUCCUCAACCACCAAUCCAUCCCACCACAUGAUGAUGCACGACGAGCCUUGGUUUUUUG, which “polymerase ribozyme fitness (log ratio)” value is on record?
A: -3.97

Q: Which “polymerase ribozyme fitness (log ratio)” value does the source give for GACCAAUCGGCGCUCAGAGCUCGAGAACAUCUUCGGAUGCAGAGGAGGCAGGAUUCGGUGGCGCGAUAGCGCCAACGUCCUCAACCUCCAAUGCAUCCUACUACAUGAUGAUGCCUGAAGAGCCUUGGUUUUUUG here?
A: -5.32

Q: With GACCAAUCGGACCUCAGAGCUCGAGAACAUCUUCGGAUGCAGAGGAGGCAGGCUUCGGUGGCCCGAUAGCGCCAACGUCCUCAACCUCCAAUGCAUCCCACCACAUGAUGAUGCCUGAAGAGCCUUGGUUUUUUG as the variant, how does the “polymerase ribozyme fitness (log ratio)” value read?
A: -0.534

Q: Which “polymerase ribozyme fitness (log ratio)” value does the source give for GACCAAUCGGCCCUCAGAGCUCGAGAACAUCUUCGGAUGCAGAGGAGGCAGGCUUCGGUGGCGCGAUAGCGCCAACGUCCUCAACCUCCAAUGCAUCCCACCACAUGAUGAUGCCUGAAGUGUCUUGGUUUUUUG here?
A: 2.06

Q: For GACCAAUCGGCCCUCAGAGCUCGAGAACAUCUUCGGAUGCAGAGGCGGCAGGCUUCGGUGGCGCGAUAGCGCCAACGUCCUCAACCUCCAAUGCAUCCCACCACAUGAUGAUGCCUGAAGAGCCUUGGUUUUUUG, which “polymerase ribozyme fitness (log ratio)” value is on record?
A: -0.961

Q: With GACCAAUCGGACCUCAGAGCUCGAGAACAUCUUCGGAUCCAGAGGAGGCAGGCUUCGGUGGCGCGAUAGCGGCAACCUCCUCAACCUCCAAUGCAUCCCACCACAUGAUGAUGCCUGUAGAGCCUUGGUUUUUUG as the variant, how does the “polymerase ribozyme fitness (log ratio)” value read?
A: -2.83

Q: For GACCAAUCGGCCCUCAGAGCUCGAGAACAUCUUCGGAUGCAGAGGAGGCAGGCUUCGGUGGCGCGAUAGCGCCAACGUCCUCAACCUCCAAUGCAUCCCACCACAUGAUGAUGCCUGAAGGGCCUUGGUUAUUUG, which “polymerase ribozyme fitness (log ratio)” value is on record?
A: 1.98

Q: With GACCAAUCGGUCCUCAGAGCUCGAGAGCAUCUUCGGAUGCAGAGGACGCAGGCUUCGGUGGCGCGAUAGCGCCAACGCCCUCAACUUCCAAUGCAUCCCACCACAUGAUGAUGCCUGAAGAGCCUUGGUUUUUUG as the variant, how does the “polymerase ribozyme fitness (log ratio)” value read?
A: -2.22

Q: For GACCAAUCGGCCCUCAGAGCUCGAGAACAUCUUCGGAUGCAGAGGAGGCAGGCUUCGGUGGCGCGAUAGCGCCAACGUCCUCCACCUCCAAUGCAUCCCACCACAUGAUGAUGCCUGAAGAGCCUUGGUUUUUUG, which “polymerase ribozyme fitness (log ratio)” value is on record?
A: 0.502

Q: With GACCAAUCGGCCAUCAGAGCUCGAGAAUAUCUUCGGAUGCAGAGGAUGCAGGCUUCGGUGGCGCGAUAGCGCCAACGUCCUCAACGUCCAAUGCAUCCCACCACAUGAUGAUGCCUGAAGAGCCUUGGUUUUUUG as the variant, how does the “polymerase ribozyme fitness (log ratio)” value read?
A: -1.92

Q: For GACCAAUCGGCCAUCAGAGCUGGAGAACAUCUUCGGAUGCAGAGGAGACAGGCUUCGGUGGCGCGAUAGCGCCAACGUCCUCAACCUCCAAUGCAUCCCACCACAUGAUGAUGCCUGAAGAGCCUUGGUUUUUUG, which “polymerase ribozyme fitness (log ratio)” value is on record?
A: -3.85

Q: With GACCAAUCGGCCCUCAGAGCUCGAGAACAUCUUCGGAUGCUGAGGAGGCAGGCUUCGGUGGCGCGAUAGCGCCAACGUCCUCAACCUCCAAUGCCUCCCACCACAUGAUGAUGCCUGAAGAGCCUUGGUUAUUUG as the variant, how does the “polymerase ribozyme fitness (log ratio)” value read?
A: -1.93
